Source: CN113336845A (LANZHOU VETERINARY RES INST CAAS, dated 2021)

Target: T1, 融合蛋白3AN (FMDV 3A epitope fused to PRRSV N protein)
T1 construct: also called 3AN融合蛋白; 3AN蛋白抗原
Experiment: ELISA, biotin-labelled C8 detects 3AN captured by 3A24

B1: 猪繁殖与呼吸综合征病毒核衣壳蛋白的猪源单个B细胞抗体C8 (antibody, V domains shown)
VH: GLVQPGGSLRLSCVASGFTFSSYIVTWVRQSPGKGLEWLAGTGVGEYALYYRNSVRGRFTLSRDNSQNTAYLQMNSLRVEETGRYFCRRGAAESVDLWGPGVEVVVSS
VL: QEPAMSVSLGGTVTLTCAFSSGSVTRSHWPSWFQLTPGQPPRTLIVSTDSRPTGVPSRFSGAISGYKAALTITGAQPEDEADYVCGVYFTFTKRPFGGGTHLTVLG
notes: also called C8单抗; 单克隆抗体C8
  binding result: binds
